Literature values in US20200069786A1, “COMPOSITION AND PROCESS FOR PREPARING VACCINE” (TREOS BIO ZRT., priority 2018, published 2020).
Where two headings read alike, the source gives them in different places.

Tested on: TSA
[1] = TSA expression rate in Cervical cancer
[2] = TSA expression rate in HEAD and NECK
[3] = TSA expression rate in LUNG cancer
[4] = TSA expression rate in MELANOMA
[5] = TSA expression rate in PROSTATE cancer
[6] = TSA expression rate in Esophageal
[7] = TSA expression rate in GASTRIC cancer
[8] = TSA expression rate in LEUKEMIAS
[9] = TSA expression rate in PEDIATRIC

Molecule | TSA Expression Rate (ER) (BRAIN) | TSA Expression Rate (ER) (BREAST) | TSA Expression Rate (ER) (OVARIAN) | TSA Expression Rate (ER) (THYROID) | Expression Rate (ER) % (TSA expression rate in CRC) | Expression Rate (ER) % [1] | Expression Rate (ER) % [2] | Expression Rate (ER) % (TSA expression rate in Kidney) | Expression Rate (ER) % [3] | Expression Rate (ER) % [4] | Expression Rate (ER) % [5] | TSA Expression Rate (ER) (LUNG) | TSA Expression Rate (ER) (HCC) | Expression Rate (ER) % (TSA expression rate in BLADDER cancer) | Expression Rate (ER) % [6] | Expression Rate (ER) % [7] | Expression Rate (ER) % [8] | Expression Rate (ER) % [9] | TSA Expression Rate (ER) (PANCREATIC)
SPO11 (protein, UniProt Q9Y5K1 1-396, looked up) Meiotic recombination protein …: MAFAPMGPEASFFDVLDRHRESLLAALRRGGREPPTGGSRLASSSEVLASIENIIQDIITSLARNEAPAFTIDNRSSWENIKFEDSVGLQMVSHCTTRKIKSDSPKSAQKFSLILKILSMIYKLVQSNTYATKRDIYYTDSQLFGNQTVVDNIINDISCMLKVSRRSLHILSTSKGLIAGNLRYIEEDGTKVNCTCGATAVAVPSNIQGIRNLVTDAKFVLIVEKDATFQRLLDDNFCNKLSPCIMITGKGVPDLNTRLLVKKLWDTFHVPVFTLVDADPHGIEIMCIYKYGSMSMSFEAHHLTVPAIRWLGLLPSDLKRLNVPKDSLIPLTKRDQMKLDSILRRPYVTCQPFWRKEMEIMADSKMKAEIQALTFLSSDYLSRVYLPNKLKFGGWI | 12% | 0% | 0% | 0% | 0% | 33% | 0% | 0% | 0% | 6% | 0% | – | – | – | – | – | – | – | –
CRISP2 (protein, UniProt P16562 22-243, looked up) Cysteine-rich secretory …: KDPAFTALLTTQLQVQREIVNKHNELRKAVSPPASNMLKMEWSREVTTNAQRWANKCTLQHSDPEDRKTSTRCGENLYMSSDPTSWSSAIQSWYDEILDFVYGVGPKSPNAVVGHYTQLVWYSTYQVGCGIAYCPNQDSLKYYYVCQYCPAGNNMNRKNTPYQQGTPCAGCPDDCDKGLCTNSCQYQDLLSNCDSLKNTAGCEHELLKEKCKATCLCENKIY | – | 15% | 14% | 0% | 0% | 17% | 11% | 14% | – | 6% | 38% | 29% | – | – | – | – | – | – | –
MAGE-A2 (protein, UniProt P43356 1-314, looked up) Melanoma-associated antigen 2: MPLEQRSQHCKPEEGLEARGEALGLVGAQAPATEEQQTASSSSTLVEVTLGEVPAADSPSPPHSPQGASSFSTTINYTLWRQSDEGSSNQEEEGPRMFPDLESEFQAAISRKMVELVHFLLLKYRAREPVTKAEMLESVLRNCQDFFPVIFSKASEYLQLVFGIEVVEVVPISHLYILVTCLGLSYDGLLGDNQVMPKTGLLIIVLAIIAIEGDCAPEEKIWEELSMLEVFEGREDSVFAHPRKLLMQDLVQENYLEYRQVPGSDPACYEFLWGPRALIETSYVKVLHHTLKIGGEPHISYPPLHERALREGEE | 28% | – | 7% | 9% | 18% | – | 38% | 7% | – | 62% | 18% | 40% | 25% | 25% | 53% | 31% | 11% | 60% | –
CCDC62 (protein, UniProt Q6P9F0 1-684, looked up) Coiled-coil domain-containing …: MNPPAAFLAGRQNIGSEVEISTIEKQRKELQLLIGELKDRDKELNDMVAVHQQQLLSWEEDRQKVLTLEERCSKLEGELHKRTEIIRSLTKKVKALESNQMECQTALQKTQLQLQEMAQKATHSSLLSEDLEARNETLSNTLVELSAQVGQLQAREQALTTMIKLKDKDIIEAVNHIADCSGKFKMLEHALRDAKMAETCIVKEKQDYKQKLKALKIEVNKLKEDLNEKTTENNEQREEIIRLKQEKSCLHDELLFTVEREKRKDELLNIAKSKQERTNSELHNLRQIYVKQQSDLQFLNFNVENSQELIQMYDSKMEESKALDSSRDMCLSDLENNHPKVDIKREKNQKSLFKDQKFEAMLVQQNRSDKSSCDECKEKKQQIDTVFGEKSVITLSSIFTKDLVEKHNLPWSLGGKTQIEPENKITLCKIHTKSPKCHGTGVQNEGKQPSETPTLSDEKQWHDVSVYLGLTNCPSSKHPEKLDVECQDQMERSEISCCQKNEACLGESGMCDSKCCHPSNFIIEAPGHMSDVEWMSIFKPSKMQRIVRLKSGCTCSESICGTQHDSPASELIAIQDSHSLGSSKSALREDETESSSNKKNSPTSLLIYKDAPAFNEKASIVLPSQDDFSPTSKLQRLLAESRQMVTDLELSTLLPISHENLTGSATNKSEVPEESAQKNTFVSY | – | – | 0% | – | 13% | – | 12% | 25% | – | – | 22% | – | 0% | – | 21% | 7% | – | – | –
MORC1 (protein, UniProt Q86VD1 1-984, looked up) MORC family CW-type zinc …: MDDRYPALQRAQLRLDFIHANSTTHSFLFGALAELLDNARDAGAERLDVFSVDNEKLQGGFMLCFLDDGCGMSPEEASDIIYFGRSKKRLSTLKFIGQYGNGLKSGSMRIGKDFILFTKKEETMTCVFFSQTFCEEESLSEVVVPMPSWLIRTRESVTDDPQKFAMELSIIYKYSPFKTEAELMQQFDVIYGKCGTLLVIYNLKLLLNGEPELDVKTDKEDILMAGALEDFPARWSFRAYTSVLYFNPWMRIFIQAKRVKTKHLCYCLYRPRKYLYVTSSFKGAFKDEVKKAEEAVKIAESILKEAQIKVNQCDRTSLSSAKDVLQRALEDVEAKQKNLKEKQRELKTARTLSLFYGVNVENRSQAGMFIYSNNRLIKMHEKVGSQLKLKSLLGAGVVGIVNIPLEVMEPSHNKQEFLNVQEYNHLLKVMGQYLVQYCKDTGINNRNLTLFCNEFGYQNDIDVEKPLNSFQYQRRQAMGIPFIIQCDLCLKWRVLPSSTNYQEKEFFDIWICANNPNRLENSCHQVECLPSIPLGTMSTISPSKNEKEKQLRESVIKYQNRLAEQQPQPQFIPVDEITVTSTCLTSAHKENTKTQKIRLLGDDLKHESLSSFELSASRRGQKRNIEETDSDVEYISETKIMKKSMEEKMNSQQQRIPVALPENVKLAERSQRSQIANITTVWRAQPTEGCLKNAQAASWEMKRKQSLNFVEECKVLTEDENTSDSDIILVSDKSNTDVSLKQEKKEIPLLNQEKQELCNDVLAMKRSSSLPSWKSLLNVPMEDVNLSSGHIARVSVSGSCKVASSPASSQSTPVKETVRKLKSKLREILLYFFPEHQLPSELEEPALSCELEQCPEQMNKKLKMCFNQIQNTYMVQYEKKIKRKLQSIIYDSNTRGIHNEISLGQCENKRKISEDKLKNLRIKLALLLQKLQLGGPEGDLEQTDTYLEALLKEDNLLFQNNLNKVTIDARHRLPLEKNEKTSEN | – | 0% | 14% | 0% | 0% | 0% | – | 0% | 18% | 19% | 0% | – | – | – | – | – | – | – | –
ADAM2 (protein, UniProt Q99965 175-735, looked up) Disintegrin and …: DFAKYIEMHVIVEKQLYNHMGSDTTVVAQKVFQLIGLTNAIFVSFNITIILSSLELWIDENKIATTGEANELLHTFLRWKTSYLVLRPHDVAFLLVYREKSNYVGATFQGKMCDANYAGGVVLHPRTISLESLAVILAQLLSLSMGITYDDINKCQCSGAVCIMNPEAIHFSGVKIFSNCSFEDFAHFISKQKSQCLHNQPRLDPFFKQQAVCGNAKLEAGEECDCGTEQDCALIGETCCDIATCRFKAGSNCAEGPCCENCLFMSKERMCRPSFEECDLPEYCNGSSASCPENHYVQTGHPCGLNQWICIDGVCMSGDKQCTDTFGKEVEFGPSECYSHLNSKTDVSGNCGISDSGYTQCEADNLQCGKLICKYVGKFLLQIPRATIIYANISGHLCIAVEFASDHADSQKMWIKDGTSCGSNKVCRNQRCVSSSYLGYDCTTDKCNDRGVCNNKKHCHCSASYLPPDCSVQSDLWPGGSIDSGNFPPVAIPARLPERRYIENIYHSKPMRWPFFLFIPFFIIFCVLIAIMVKVNFQRKKWRTEDYSSDEQPESESEPKG | – | 0% | 0% | – | 0% | 0% | – | 9% | 1% | 3% | 25% | – | – | – | – | – | 6% | – | –
XAGE-1 (protein, UniProt Q9HD64 1-81, looked up) X antigen family member 1: MESPKKKNQQLKVGILHLGSRQKKIRIQLRSQCATWKVICKSCISQTPGINLDLGSGVKVKIIPKEEHCKMPEAGEEQPQV | 18% | 58% | 5% | – | – | – | 40% | – | – | 7% | – | 25% | 33% | – | – | – | – | 53% | –
SSX-3 (protein, UniProt Q99909 1-188, looked up) Protein SSX3: MNGDDTFARRPTVGAQIPEKIQKAFDDIAKYFSKEEWEKMKVSEKIVYVYMKRKYEAMTKLGFKAILPSFMRNKRVTDFQGNDFDNDPNRGNQVQRPQMTFGRLQGIFPKIMPKKPAEEGNVSKEVPEASGPQNDGKQLCPPGKPTTSEKINMISGPKRGEHAWTHRLRERKQLVIYEEISDPEEDDE | 0% | 0% | 0% | 0% | 0% | – | – | 0% | – | – | – | – | – | – | – | – | 4% | – | 0%
SSX-5 (protein, UniProt O60225 1-188, looked up) Protein SSX5: MNGDDAFVRRPRVGSQIPEKMQKAFDDIAKYFSEKEWEKMKASEKIIYVYMKRKYEAMTKLGFKATLPPFMRNKRVADFQGNDFDNDPNRGNQVEHPQMTFGRLQGIFPKITPEKPAEEGNDSKGVPEASGPQNNGKQLRPSGKLNTSEKVNKTSGPKRGKHAWTHRVRERKQLVIYEEISDPQEDDE | 0% | 0% | 0% | 0% | 2% | – | 7% | 0% | 4% | 5% | – | – | 37% | – | – | 0% | 24% | – | –
